Measurements: article doi:10.1101/2022.11.23.517744
Where “and” joins values, the source holds several entries; their conditions need not be identical. Identical values can stand only once.

Target: human vinculin D1D2 (head domain subunits D1D2), wild type (human)
Test: native gel or EMSA

## Shigella IpaA-VBS123 (C-terminal region with the three vinculin binding sites), wild type, GST cleaved (domain or fragment)
  stoichiometry N (D1D2 per IpaA-VBS123): 2 and 3
